# Measurements: paper PMC8840469, “Directed Evolution of a Nonheme Diiron N-oxygenase AzoC for Improving Its Catalytic Efficiency toward Nitrogen Heterocycle Substrates” (Molecules, 2022)
# Columns and labels:
# AzoC = system: T1, AzoC; assay: HPLC, initial velocity, Michaelis-Menten fit; type: biochemical, Streptomyces chattanoogensis; conditions: 30 °C, 1 h; 5.2 μM enzyme; substrate 0.05-2 mM; general in vitro reaction (not restated for kinetics): NADH 0.1 mM, PMS 0.75 mM, 20 mM HEPES pH 7.5, but 3 μM enzyme; read-out: Substrate: 2-methoxypyrimidin-5-amine / Km
# T1 construct: nonheme diiron enzyme
# Excerpt: (§1) HPLC, initial velocity, Michaelis-Menten fit on AzoC
# COc1ncc(N)cn1 = system: T2, COc1ncc(N)cn1; assay: HPLC, initial velocity, Michaelis-Menten fit; type: biochemical, Streptomyces chattanoogensis; conditions: 30 °C, 1 h, 5.2 μM enzyme, substrate 0.05-2 mM, general in vitro reaction (not restated for kinetics): NADH 0.1 mM, PMS 0.75 mM, 20 mM HEPES pH 7.5
# T2 construct: nonheme diiron enzyme
# Excerpt: as §1
Km (AzoC) [µM],Molecule,Km (COc1ncc(N)cn1) [µM],kcat (COc1ncc(N)cn1) [s⁻¹],kcat/Km (COc1ncc(N)cn1) [M⁻¹ s⁻¹]
510 ± 59,"COc1ncc(N)cn1 [compound 3, 2-methoxypyrimidin-5-amine]",,,
,AzoC (Streptomyces chattanoogensis),650 ± 120,0.018 ± 0.0014,27.7
